From PMC4072508, “Genome-Wide Prediction and Validation of Peptides That Bind Human Prosurvival Bcl-2 Proteins” (PLoS Computational Biology, 2014)

T1: Bfl-1, Q16548
T1 chain: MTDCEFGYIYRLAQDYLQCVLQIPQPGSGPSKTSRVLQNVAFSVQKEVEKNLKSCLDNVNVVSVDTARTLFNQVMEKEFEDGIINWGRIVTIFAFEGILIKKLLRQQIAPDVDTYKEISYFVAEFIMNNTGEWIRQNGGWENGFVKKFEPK

T2: Mcl-1, Q07820
T2 chain: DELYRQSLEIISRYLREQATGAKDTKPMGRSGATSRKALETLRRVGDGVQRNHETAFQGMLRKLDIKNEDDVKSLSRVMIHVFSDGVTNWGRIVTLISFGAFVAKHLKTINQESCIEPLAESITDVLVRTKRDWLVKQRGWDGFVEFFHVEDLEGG


How the values were obtained:
Experiment in all cases: peptide SPOT array, c-Myc-tagged receptor at 1 uM or 100 nM, anti-c-Myc-Cy3
Bcl-xL, Q07817 = biological target: Bcl-xL, Q07817
Bcl-xL, Q07817, sequence (Q07817 1-209): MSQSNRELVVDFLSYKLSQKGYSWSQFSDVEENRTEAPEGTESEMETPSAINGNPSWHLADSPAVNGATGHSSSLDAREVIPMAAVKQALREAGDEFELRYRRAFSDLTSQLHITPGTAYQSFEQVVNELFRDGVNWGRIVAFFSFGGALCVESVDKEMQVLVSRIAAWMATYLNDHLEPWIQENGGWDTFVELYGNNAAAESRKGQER

Bfl-1, Q16548 = biological target: T1, Bfl-1, Q16548
Mcl-1, Q07820 = biological target: T2, Mcl-1, Q07820

SPOT signal as a fraction of Bim BH3's signal on the same receptor and array (Bcl-xL, Q07817)	SPOT signal as a fraction of Bim BH3's signal on the same receptor and array (Bfl-1, Q16548)	SPOT signal as a fraction of Bim BH3's signal on the same receptor and array (Mcl-1, Q07820)	Binder
0.12	0.07	0.14	VHKHSRLAEVLQLGLDILPQYKQEAP [KCNH1]
1.74	0.56	0.56	PDKRLTLSQIYQYVADNFPFYNKSKA
0.2	0.17	0.1	AELEVECATQLRRFLDKLNFRQKLLN [PMAIP1]
0.06	0.04	0.04	MSILTIASAVLEFVLDGIYNNTMGHV [TAP1]
0.07	0.05	0.06	WLKGDILGEKLVNLLDCLCNEDLESR [RNF160]
1	0.36	0.17	RMIVDCVSSHLKKTGDGAKTFIIFLC [BBS10]
0.06	0.03	0.04	LDFTFVCPTEIIAFGDRLEEFRSINT
0.05	0.04	0.04	PVESSWIAPEDRLQSDDILPLGKDSG
0.11	0.06	0.08	VTLLSEVEKMLSNFGDCVQYKEIVKN [SYNE1]
0.34	0.33	0.5	AELRLFLAQRDRWLCDSCPASRATCV [NBEAL2]
0.13	0.06	0.13	AGYELLIQKFLSLYGDQIDMHRKFVV [ISOC1]
0.08	0.08	0.07	SFLSAHCASHLAWFLDSLTSLSQRLQ [TMEM214]
0.04	0.03	0.04	NDDTPWIARTDDNLADELTAILSAPA
0.06	0.04	0.04	RKDAELLCWDDRQSGYPLWSLGREVT [WRAP53]
0.06	0.03	0.04	TGSLCEIATTLSFEGDGFLWVKSGSV [CRB1]
0.06	0.03	0.04	LDFTFVCPTEDIAFGDRLEEFRSINT

SPOT signal as a fraction of Bim BH3's signal on the same receptor and array (Bcl-xL, Q07817)	SPOT signal as a fraction of Bim BH3's signal on the same receptor and array (Bfl-1, Q16548)	SPOT signal as a fraction of Bim BH3's signal on the same receptor and array (Mcl-1, Q07820)	Binder
0.07	0.05	0.04	DDMFEPHSWNDKELSDDCFQQWGVRP
1.27	0.69	0.93	RLRQLGVAKKFGVLLDNFKGKRIVLV [PPAT]
0.66	0.76	0.83	FKAWGKFGGADCRYADEMKEIQERQR [PURB]
0.15	0.07	0.06	ADAIRPRCVEDRHLCDDFINGNKKKW [MCF2L2]
0.16	0.07	0.08	ERLKGQLCDVDLIVGDQKFRAHKNVL [ZNF295]
0.06	0.04	0.04	LTETSLISGNLHRIGDITSCSVLWLN [FBXW5]
0.05	0.07	0.05	TETKATFGVHDKIVGDWTERFRDLLL [NOX4]
0.04	0.04	0.04	NDDTPWIARTLDNLADELTAILSAPA
0.06	0.03	0.07	LSIIYTLVEIFQNIGDTNLADFTAGL [SLC26A4]
0.05	0.04	0.04	PVESSWIAPELRLQSDDILPLGKDSG
0.05	0.04	0.04	LNLLMISVAFDRVIGDQLEKLCDSLL [SLC38A8]
0.07	0.05	0.04	DDMFEPHSWNLKELLDDCFQQWGVRP
0.05	0.04	0.04	PVESSWIAPELRLQLDDILPLGKDSG
0.09	0.13	0.11	WTLFVYTKGNFRMILDDLVNSYHLLL [RBL1]
0.84	0.42	0.39	PDKRLTLSQIDQYVADNFPFYNKSKA
0.14	0.11	0.08	LCQLSCVSKLDRDVCGSLLQSRGMVI [FBXO30]
